{"source": "patent US7312058B2", "about": "“Mutant serine acetyltransferase” (priority 2003, dated 2007)", "key": {"[1]": {"tested_on": "serine acetyltransferase (SAT)", "procedure": "Acetyl coenzyme A and other chemicals used were from Sigma Chemical Co. (St. Louis, Mo., USA).\nThe cells were sonicated and the pellet was separated by centrifugation at 13000 rpm. The SAT-containing protein fractions in the resulting supernatant were precipitated by 5 volumes of saturated (NH4)2SO4 and pellets were dissolved in 2 ml of buffer (pH 7.5, 50 mM potassium phosphate and 100 mM KCl). The obtained solution was added to 0.1 ml of reaction mixture (500 mM Tris-HCl (pH 8.5), 5 mM L-serine, 0.1 mM acetyl coenzyme A) and incubated at 37° C. for 10 min. The reaction was stopped by adding 0.3 ml of ethanol followed by centrifugation at 13000 rpm. 0.95 ml of 0.24 mM DTNB (5,5-dithio-bis-2-nitrobenzoate) solution was added to supernatant and mixture was incubated for 15 min. The SAT activity was assayed by measuring the absorbance at 412 nm."}, "[2]": {"tested_on": "E. coli strain MG1655", "assay": "L-cysteine production by test-tube fermentation of strains carrying a mutant cysE plasmid", "type": "cell-based", "excerpt": "The E. coli strain MG1655 (ATCC47076, ATCC700926) was used as a parental strain for evaluation of effect of enhanced expression of mutant cysE gene on L-cysteine production.\nPlasmids pMW-PompC-cysEX (containing mutant cysEX gene encoding a mutant SAT in which Thr167 is replaced with Ala, which is described in the U.S. Pat. No. 6,218,168) and pMW-PompC-cysE5 were introduced into the E. coli strain MG1655. The resulting strains MG1655/pMW-PompC-cysEX and MG1655/pMW-PompC-cysE5 were cultivated overnight with shaking at 34° C. in 2 ml of nutrient broth supplemented with 100 mg/l of ampicillin. 0.2 ml of the obtained cultures were inoculated into 2 ml of a fermentation medium containing ampicillin (100 mg/l) in 20×200 mm test tubes, and cultivated at 34° C. for 42 hours with a rotary shaker at 250 rpm. The composition of the fermentation medium was the following: 15.0 g/l of (NH4)2SO4, 1.5 g/l of KH2PO4, 1.0 g/l of MgSO4, 20.0 g/l of CaCO3, 0.1 mg/l of thiamine, 1% of LB, 4% of glucose, 300 mg/l of L-methionine and 0.5 g/l of Na2S2O3.\nAfter cultivation, the amount of L-cysteine which had accumulated in the medium was determined by the method described by Gaitonde, M. K. (Biochem. J., 104:2, 627-33 (1967))."}}, "data": [{"substance": "cysE5 (RTRDPARP; randomized region of SAT protein only)", "values": [{"measurement": "Residual activity in presence 25 μM cysteine, %", "setting": "[1]; 25 μM cysteine", "value": 100, "unit": "%"}, {"measurement": "Specific activity, relative units", "setting": "[1]; protein fraction from LE392 cysE::KmR carrying the plasmid, 5 mM L-serine, 0.1 mM acetyl coenzyme A, 37° C., 10 min", "value": 900, "unit": "relative units"}, {"measurement": "sensitivity to feedback inhibition by L-cysteine", "setting": "[1]; statement from Table 2 and FIG. 5", "value": "no sensitivity to feedback inhibition by L-cysteine"}, {"measurement": "effect of overexpression on cysteine productivity", "setting": "[2]", "value": "improved cysteine productivity"}]}]}
